Results as given in the nanobody polyreactivity screen of Harvey et al. (2022).

assay: yeast display, Sf9 membrane polyspecificity reagent, FACS + sequencing; frameworks hold sequencing errors
How it was run: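 Genes from sorted yeast were amplified by colony PCR, read by MiSeq 2 × 250 sequencing and filtered on CDR length. These cells carried a synthetic nanobody library in Saccharomyces cerevisiae BJ5465 and were sorted by FACS into low and high (top ~1%) gates on anti-HA and streptavidin fluorescence. Polyreactivity is labelled according to the gate of origin.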

Row | Sequence | polyreactivity (PSR sort gate)
1 | QVQLVESGGCLVQAGGSLRLSCAASGRTSVIYAMGWYRQAPGKERELVASIRRGGSTSYADSVKGRFTISRDNAKNTVYLQMNSLKPEDTAVYYCAADRYTWRKSYDYWGQGTQVTVSS | high polyreactivity
2 | QVQLVESGGCLVQAGGSLRLSCAASGSIFAYYAMGWYRQAPGKERELVAAITSGDSTYYADSVKGRFTISRDNAKNTVYLQMNSLKPEDTAVYYCAADHIWFYFYLYDYWGQGTQVTVSS | low polyreactivity
3 | QVQLVESGGCLVQAGGSLRLSCAASGSIFGANTMGWYRQAPGKESELVAAISSGGNTYYADSVKGRFTISRDNAKNTVYLQMNSLKPEDTAVYYCNAQTRYRYQYGFLGGTGYNYWGQGTQVTVSS | low polyreactivity
4 | QVQLVESGGCLVQAGGSLRLSCAASGSIFRYNIGWYRQAPGKERELVAAISSSGVRTYYADSVKGRFTISRDNAKNTVYLQMNSLKPEDTAVYYCAAASGGRWRVGYWGQGTQVTVSS | high polyreactivity
5 | QVQLVESGGCLVQAGGSLRLSCAASGSIFRYYVMGWYRQAPGKERELVAAISSRGGSTYYADSVKGRFTISRDNAKNTVYLQMNSLKPEDTAVYYCAAYRAYSTAVGMEYWGQGTQVTVSS | high polyreactivity
6 | QVQLVESGGCLVQAGGSLRLSCAASGSIFYNNAMGWYRQAPGKERELVASSTGGGSTYADSVKGRFTISRDNAKNRVYVQMNSLKPEDTAVYYCAVGRYFVRYDYWGQGSQVTVSS | low polyreactivity
7 | QVQLVESGGCLVQAGGSLRLSCAASGSIIGLYPMGWSRQAPGKERELVAAITQSAGSTYYADSVKGRFTISRDNALNTVFLQMNSLKPEDTAVYYCAAVWAYYGYESDYWGQGTQVTVSS | low polyreactivity
8 | QVQLVESGGCLVQAGGSLRLSCAASGSTFDINAMGWYRQAPGKESELVASITFSGGSTYYADSVKGRFTISRDNAKNTVYLQMNSLKPEDTAVYYCAADSSGEYPGGYWGQGTQVTVTS | low polyreactivity
9 | QVQLVESGGCLVQAGGSLRLSCAASGSTFGGNAMGWYRQAPGKERELVAAISTSGGSTYYADSVKGRFTISRDNAKNTVYLQMNSLKPEDTAVYYCNAVRIGGAPRSRFYDWGQCTQVTVSS | high polyreactivity
10 | QVQLVESGGCLVQAGGSLRLSCAASGSTFHYNAMGWYRQAPGKERELVATISWSGGSTYYADSVKGRFTISRDNAKNTVYLQMNSLKPEDTAVYYCAARYSGYRGSFYGRHGGKYYYWGQGTQVTVSS | high polyreactivity
11 | QVQLVESGGCLVQAGGSLRLSCAASGSTFPAYAMGWYRPAPGKERELVAAISRSGGSTYYADSVKGRFTISRDNAKNTVYLQMNSLKPEDTAVYYCAARAAYSYDDGYWGQGTQVTVSS | high polyreactivity
12 | QVQLVESGGCLVQAGGSLRLSCAASGSTFWSYAMGLYRQAPGKARELVAVIYRGGSTNYADSVKGRFTISRDNAKNTVYVQMNSLKREDTAVYYCASRYKTAEYYYWGQGTQVTVSS | high polyreactivity
13 | QVQLVESGGCLVQAGGSLRLSCAASGSTIYAMGWYRQAPGKERELVAGINRSGTRTYYADSVKGRFTISRDNAKNTVYLQMNSLKPEDTAVYYCAALVYRPTYGYIFDYWGQGTQVTVSS | high polyreactivity
14 | QVQLVESGGCLVQAGGSLRLSCASSGRTFRRYTMGWYRQAPGKETELVAAITSGGRTNYADSVKGRFTISRDNAKNTVYLQMNSLKPEDTAVYYCNAQNEIWRVTFSPYDRWGYDYWGQGTQVTVSS | low polyreactivity
15 | QVQLVESGGCLVQAGGSLRLSCASSGSTIGGYAMGWYRQAPGKERELVAAITWNGGRTYYADSVKGRFTISRDNAKNTVYVQMTSLKQEDTAVYYCATLNLSRSKRVSGGGYWGQGTQVTVSS | high polyreactivity
16 | QVQLVESGGCLVQAGGSLRLSCASTGSIIYWYTMGWYRQAHGKDRELVAASSSIDGNTYYADSVKGRFTISRDNAKNTVYLQMNSLKPEDTAVYYCPAAYYNTDYYYWGQGTQVTVSS | low polyreactivity
17 | QVQLVESGGCLVQAGGSLRLSSAASGRTFRYYAMGSYRQAPGKERELVAAITVTVTSTFYADSVKGRFTISRDNAKNTVYLQMNSLKPEDTAVYYCAVPGATSYFPDDSWGQGTQVTVSS | low polyreactivity
18 | QVQLVESGGCLVQAGGSQRLSCAASGIIFEGYAMRWYRQAPGRERELVAAISQSGGSTRYADSVKGRFTISRDNAKNTVYLQMNRLKAEDTAVYYCAKEVWNWGPYYYWGQGSQVTVSS | low polyreactivity
19 | QVQLVESGGCLVQAGGTLRLSGAASGRTFRADGMGWCRQPPGKEWELVAVISWRDGSTFYADSVQGRFTISRDTAKNTVYLQMNSLKPEDTAVYYCNKASQLYYIQGTYSYGYWGQGTQVTVSS | low polyreactivity
20 | QVQLVESGGCLVQEGGSLRLSCAASGITFYLYAMGWYSQGPGKERELVATISRSGGSTYADSVKGRFTISRDNAKNNVYLQRNSLKPEDTAVDYCNADGWYGYWGQGTQVTVSS | low polyreactivity
21 | QVQLVESGGCLVQEGGSLRLSCAASGSTVTYYDMGWYRQAPGKERELVATIDSTTRTYYADSVKGRFTISRDNAKNTVYLQMNSLKPEDTAVYYCAADMTWGYFYYLFYRYDYWGKGTQVTVSS | low polyreactivity
22 | QVQLVESGGDLVQAGGSLRLSCAASGSIFYINAMGWYRQAPGKERELVASISYSGTSTYYADSVKGRFTISRDNAKNTFFLQMNSLKPEDTAVYYCNAEDTAGAGDGYWGEGTQVTVSS | low polyreactivity

Row | Sequence | polyreactivity (PSR sort gate)
23 | QVQLVESGGDLVQAGGSLRLSCAATGFTFDYYAMGWYRQAPGKEREFVAAISRSGGRTYYADSVKGRFTISRDNAKNTVYLQMNSLKQEDTAVYYCAAGFVGERFDYWGQGTQVTVSS | high polyreactivity
24 | QVQLVESGGDLVQAGGSLRLSCGASGFIFDGYAMGWYRQAPGKERELVAAISSSGGRTHYADSVKGRFKISRDNAMNTVYLQMNSLKAEDTAVYYCAATVRGKRSTYDYWGQGTQVTVSS | high polyreactivity
25 | QVQLVESGGFLVQAGGSLRLSCAASGFTFAKYAMGWSRQAPRKERELVAVITSSGGRTYYADSVKARFTISRDTAKNTVYLQMISLKPEDTAVYYCNAGKYVYATSQYDYWGQGTQVTVSS | high polyreactivity
26 | QVQLVESGGFLVQAGGSLRLSCAASGSTSYNYVMGWYRQAPRKERELVAGITWSDDITYYADSVKGRFSISRDNAKNTVYLQMNSLKPEDTAVYYCAAEDGPLYWRFPDEMDYWGQGTQVTVSS | low polyreactivity
27 | QVQLVESGGGEVQAGGSLRLSCAASGSIFRFYTMGWSRQAPGTERELVATLARGGSTNYADSVKGRFTISRDTAKNTVYLQMNSLKPEDTAVYYCNVAALYSTYCGYGYDYSGQGTQVTVSS | high polyreactivity
28 | QVQLVESGGGEVQEGGILRLSCAASGSIFSRNSMGWYRQAPGKDRELVAAITWSGGSTYYADSVKGRFTISRDNAKYTVYLLMNSLKPEDTAVYYCNADFAGTPNQYDYWGQGTQVTVSA | high polyreactivity
29 | QVQLVESGGGFDHAGGSLRLSCAAYGSTFVYNAMGWYRQAPGKERELVAAITSTGGNTDYADSVKGRFTISRDNAKNTVYLQMNSLKPEDTAVYYCNARDYYWLGFTYRFDYWGQGTQVTVSS | low polyreactivity
30 | QVQLVESGGGFVQAGASLRLSCAASGRTFYRYAMGWYRQAPGKERQLVAAINWRGGSTSYADSVKGRFTISRDNAKNTVYLQMNSLIPEDTAVYYCNAKFICWYEKGGCNVSKYEYWGQGTQVTVSS | low polyreactivity
31 | QVQLVESGGGFVQAGGSLRISCAASGRTFYPYAMGWYRQAPGKERELVAAISRSGGGTYYADSVKGRFTISRDNAKNTVYLQMNSLKPEDTAVDYCAADDGVAIYDYWGQGTQVTVSS | low polyreactivity
32 | QVQLVESGGGFVQAGGSLRLICAASGSIDYNAMGWYRQAPGKERELVAAITQRGGRTYYADSVKGRFTISRDNAKNTVYLQMNSLKPEDTAVYYCNTKGNYGLGYKNYYWGQGTQVTVSS | high polyreactivity
33 | QVQLVESGGGFVQAGGSLRLSCAASGFTFRYYAMGWYRQAPGKERELVAAISRGGNTYYADSVKGRFTMSRDNAKNTVYLQMNSLKPEDTAVYFCNSAYLYIARHGYWGQGTQVTVSS | high polyreactivity
34 | QVQLVESGGGFVQAGGSLRLSCAASGGIFDVYAMGWYRQAPGKERELVAAISENGGSTYYADSVKGRFTISRDNAKNTVYLQMNSLKPEDTAVYYCAADDVSLSVFSYWAWYDYWGQGSQVTVSS | low polyreactivity
35 | QVQLVESGGGFVQAGGSLRLSCAASGNTFAGNAMGGYRQAPGKERELDAAISRSGVTTRYADSVKGRFTISRDNAKNTVYFQMKSLKPEDTAVSYCNADPRLRETRDYWGQVTQVTVSS | high polyreactivity
36 | QVQLVESGGGFVQAGGSLRLSCAASGRIFLWNAMGWYRQAPGKERELVAGIRWSTGSTYYADSVKGRFTISRDNAKYTVSLQMYSLKRDDTAVYYCNARSLATGSKVPARGYWGQGTQVTVSS | high polyreactivity
37 | QVQLVESGGGFVQAGGSLRLSCAASGRIIGYNAMAWYRQAPGKDRELVAAITTSGGSTYYADSVKGRFTISRDNAKNTVYLQMNSLKPEDTAFYYCARDSLQVFYAYASDDFWGQGTQVTVSS | low polyreactivity
38 | QVQLVESGGGFVQAGGSLRLSCAASGRTFRYYAMGWYIQAPGKERELVASISSSGARTYYADSVKGRFTISRDNAKNTVYLQMNSLNPDDTAVYYCNARYSTTYYGTIYRGMDYWGQGTQVTVSS | high polyreactivity
39 | QVQLVESGGGFVQAGGSLRLSCAASGSIFYYNAMGWYRQAPGKEREFVAAITTSAGSTYYADSVKGRFTISRDNEKNTVYLQMYRLKPEDTAVYYCAASPGRRRRPYASLFRYDYWGQGTQVTVSS | high polyreactivity
40 | QVQLVESGGGFVQAGGSLRLSCAASGSNLGKNTMGWYRQAPGKERELVATISRSGGSTYYADSVKGRFTISRDNAKNTVYLQMNSLKPEDTAVYYCAARAIRSGYYRYDYWGQGTKVTVSS | high polyreactivity
41 | QVQLVESGGGFVQAGGSLRLSCAASGSTFFVYAMGWYRQAPGKERELVASIRWRGSSTYYADSVKGRFTISRDNAKNTVYLQMNSLKPEDTAVYYCAATSYNGYGYWGQGTQVTVSS | high polyreactivity
42 | QVQLVESGGGFVQAGGSLRLSCAASGSTFGTYAMGWYRQAPGKERELVAAISWSGGSTYYADSVKGRFTISRDNAKNTVYLQMNSLKPEDTAVYYCNATSSTPPGMDSWGQGTQVTVSS | low polyreactivity
43 | QVQLVESGGGFVQAGGSLRLSCAASGSTFLVYAMGWYRQAPGKERELVAVIDTGASTNYADSVKGRFTISRDNAKNTVYLQMNSLKPEDTAVYYCAAGFSYFTSVLSLDRYYYWGQGTQVTVSS | low polyreactivity
